Test results published in patent US20210024640A1.

Columns and labels:
[1] = target: OX40 on HT1080 OX40 stable cell line (Homo sapiens (Human)) (UniProt P43489)
[2] = target: OX40 on HT1080 OX40 stable cell line (Homo sapiens (Human)) (UniProt P43489); remark: listed apart in the source

Chain of OX40 on HT1080 OX40 stable cell line (Homo sapiens (Human)) (P43489 29-277): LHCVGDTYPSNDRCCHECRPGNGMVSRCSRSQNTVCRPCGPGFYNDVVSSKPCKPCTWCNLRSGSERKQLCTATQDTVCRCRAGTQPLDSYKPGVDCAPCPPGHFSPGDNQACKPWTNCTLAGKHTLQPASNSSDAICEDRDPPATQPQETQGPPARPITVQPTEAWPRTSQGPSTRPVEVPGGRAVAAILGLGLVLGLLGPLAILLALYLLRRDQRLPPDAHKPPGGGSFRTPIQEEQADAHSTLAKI

EC50 (read off the curve), IL-8 secretion, agonist assay control [1]: 0.3 nM
EC50 (read off the curve), IL-8 secretion, antagonist assay control (ligand titration) [2]: 0.3 nM
Substance: OX40L-Fc (Fc fusion)
